This note sets out measurements from the Human Domainome abundance scans (Beltran et al. 2025).

± gives the uncertainty stated by the source.

B1: SH3 and PX domain-containing protein 2B, residues 155 to 209; numbered along this chain, A1X283 (parent)
chain: EQYVVVANYQKQESSEISLSVGQVVDIIEKNESGWWFVSTAEEQGWVPATCLEGQ

The variants in this data set derive from B1. Kind of data set: abundance fitness (aPCA) (normalised: wild type 0, dead -1); higher = more abundant; growth selection in yeast, the domain comes from the species named. The settings on record: Homo sapiens.
Take EQYVVVANYQKQESHEISLSVGQVVDIIEKNESGWWFVSTAEEQGWVPATCLEGQ: the abundance fitness came out at 0.055 ± 0.23.
The figure for EQYVVVANYQKQESIEISLSVGQVVDIIEKNESGWWFVSTAEEQGWVPATCLEGQ is -0.201 ± 0.14.
In the case of EQYVVVANYQKQESNEISLSVGQVVDIIEKNESGWWFVSTAEEQGWVPATCLEGQ it was -0.061 ± 0.23; in that of EQYVVVANYQKQESEEISLSVGQVVDIIEKNESGWWFVSTAEEQGWVPATCLEGQ, -0.172 ± 0.11; in that of EQYVVVANYQKQESTEISLSVGQVVDIIEKNESGWWFVSTAEEQGWVPATCLEGQ, -0.103 ± 0.12.
In the case of EQYVVVANYQKQESMEISLSVGQVVDIIEKNESGWWFVSTAEEQGWVPATCLEGQ it was -0.18 ± 0.12; in that of EQYVVVANYQKQESCEISLSVGQVVDIIEKNESGWWFVSTAEEQGWVPATCLEGQ, -0.063 ± 0.1; in that of EQYVVVANYQKQESFEISLSVGQVVDIIEKNESGWWFVSTAEEQGWVPATCLEGQ, -0.244 ± 0.093.
On to EQYVVVANYQKQESVEISLSVGQVVDIIEKNESGWWFVSTAEEQGWVPATCLEGQ, for which the abundance fitness was -0.119 ± 0.095.
The figure for EQYVVVANYQKQESYEISLSVGQVVDIIEKNESGWWFVSTAEEQGWVPATCLEGQ is -0.092 ± 0.092; for EQYVVVANYQKQESPEISLSVGQVVDIIEKNESGWWFVSTAEEQGWVPATCLEGQ it is -0.121 ± 0.13; for EQYVVVANYQKQESSWISLSVGQVVDIIEKNESGWWFVSTAEEQGWVPATCLEGQ it is -0.55 ± 0.12.
The figure for EQYVVVANYQKQESSGISLSVGQVVDIIEKNESGWWFVSTAEEQGWVPATCLEGQ is 0.057 ± 0.061; for EQYVVVANYQKQESSAISLSVGQVVDIIEKNESGWWFVSTAEEQGWVPATCLEGQ it is -0.312 ± 0.079; for EQYVVVANYQKQESSNISLSVGQVVDIIEKNESGWWFVSTAEEQGWVPATCLEGQ it is -0.2 ± 0.14.
The figure for EQYVVVANYQKQESSDISLSVGQVVDIIEKNESGWWFVSTAEEQGWVPATCLEGQ is -0.211 ± 0.15; for EQYVVVANYQKQESSIISLSVGQVVDIIEKNESGWWFVSTAEEQGWVPATCLEGQ it is -0.692 ± 0.19; for EQYVVVANYQKQESSKISLSVGQVVDIIEKNESGWWFVSTAEEQGWVPATCLEGQ it is -0.16 ± 0.16.
Regarding EQYVVVANYQKQESSYISLSVGQVVDIIEKNESGWWFVSTAEEQGWVPATCLEGQ, the abundance fitness is -0.853 ± 0.3.
Take EQYVVVANYQKQESSSISLSVGQVVDIIEKNESGWWFVSTAEEQGWVPATCLEGQ: the abundance fitness was -0.177 ± 0.091.
In the case of EQYVVVANYQKQESSVISLSVGQVVDIIEKNESGWWFVSTAEEQGWVPATCLEGQ it was -0.92 ± 0.093; in that of EQYVVVANYQKQESSPISLSVGQVVDIIEKNESGWWFVSTAEEQGWVPATCLEGQ, -0.667 ± 0.17.
Regarding EQYVVVANYQKQESSTISLSVGQVVDIIEKNESGWWFVSTAEEQGWVPATCLEGQ, the abundance fitness was -0.178 ± 0.1.
The figure for EQYVVVANYQKQESSLISLSVGQVVDIIEKNESGWWFVSTAEEQGWVPATCLEGQ is -0.805 ± 0.12; for EQYVVVANYQKQESSFISLSVGQVVDIIEKNESGWWFVSTAEEQGWVPATCLEGQ it is -0.868 ± 0.17; for EQYVVVANYQKQESSMISLSVGQVVDIIEKNESGWWFVSTAEEQGWVPATCLEGQ it is -0.449 ± 0.093.
In the case of EQYVVVANYQKQESSQISLSVGQVVDIIEKNESGWWFVSTAEEQGWVPATCLEGQ, the abundance fitness is -0.008 ± 0.15.
The figure for EQYVVVANYQKQESSCISLSVGQVVDIIEKNESGWWFVSTAEEQGWVPATCLEGQ is -0.505 ± 0.16; for EQYVVVANYQKQESSEIFLSVGQVVDIIEKNESGWWFVSTAEEQGWVPATCLEGQ it is -0.157 ± 0.42; for EQYVVVANYQKQESSEIILSVGQVVDIIEKNESGWWFVSTAEEQGWVPATCLEGQ it is -0.528 ± 0.24.
In the case of EQYVVVANYQKQESSEIRLSVGQVVDIIEKNESGWWFVSTAEEQGWVPATCLEGQ it was -0.646 ± 0.31.
In the case of EQYVVVANYQKQESSEKSLSVGQVVDIIEKNESGWWFVSTAEEQGWVPATCLEGQ it was -0.692 ± 0.14; in that of EQYVVVANYQKQESSEVSLSVGQVVDIIEKNESGWWFVSTAEEQGWVPATCLEGQ, -0.048 ± 0.086.
EQYVVVANYQKQESSENSLSVGQVVDIIEKNESGWWFVSTAEEQGWVPATCLEGQ: the abundance fitness is -0.733 ± 0.47.
In the case of EQYVVVANYQKQESSEPSLSVGQVVDIIEKNESGWWFVSTAEEQGWVPATCLEGQ it was -0.769 ± 0.17.
In the case of EQYVVVANYQKQESSEMSLSVGQVVDIIEKNESGWWFVSTAEEQGWVPATCLEGQ it was -0.053 ± 0.12; in that of EQYVVVANYQKQESSEESLSVGQVVDIIEKNESGWWFVSTAEEQGWVPATCLEGQ, -0.99 ± 0.15; in that of EQYVVVANYQKQESSERSLSVGQVVDIIEKNESGWWFVSTAEEQGWVPATCLEGQ, -0.332 ± 0.061.
In the case of EQYVVVANYQKQESSETSLSVGQVVDIIEKNESGWWFVSTAEEQGWVPATCLEGQ it was -0.114 ± 0.12.
EQYVVVANYQKQESSELSLSVGQVVDIIEKNESGWWFVSTAEEQGWVPATCLEGQ: the abundance fitness is -0.055 ± 0.084.
The figure for EQYVVVANYQKQESSECSLSVGQVVDIIEKNESGWWFVSTAEEQGWVPATCLEGQ is 0.014 ± 0.1; for EQYVVVANYQKQESSEDSLSVGQVVDIIEKNESGWWFVSTAEEQGWVPATCLEGQ it is -0.889 ± 0.37.
The figure for EQYVVVANYQKQESSEQSLSVGQVVDIIEKNESGWWFVSTAEEQGWVPATCLEGQ is -0.672 ± 0.19.
The figure for EQYVVVANYQKQESSEHSLSVGQVVDIIEKNESGWWFVSTAEEQGWVPATCLEGQ is -0.715 ± 0.24; for EQYVVVANYQKQESSEASLSVGQVVDIIEKNESGWWFVSTAEEQGWVPATCLEGQ it is -0.201 ± 0.13.
As for EQYVVVANYQKQESSESSLSVGQVVDIIEKNESGWWFVSTAEEQGWVPATCLEGQ, the abundance fitness was -0.576 ± 0.18.
The figure for EQYVVVANYQKQESSEFSLSVGQVVDIIEKNESGWWFVSTAEEQGWVPATCLEGQ is -0.597 ± 0.16.
In the case of EQYVVVANYQKQESSEGSLSVGQVVDIIEKNESGWWFVSTAEEQGWVPATCLEGQ it was -0.863 ± 0.086.
